From article PMC12102759 (2025)

B1: PAIP1 peptide 124-139 (Polyadenylate-binding protein-interacting protein 1), 16-mer library wild type / PABPC1 PABC (PABPC1 PABC domain, residues 544-623) (parent complex)
chain 1: LMSKLSVNAPEFYPSG
chain 2: PLTASMLASAPPQEQKQMLGERLFPLIQAMHPTLAGKITGMLLEIDNSELLHMLESPESLRSKVDEAVAVLQAHQAKEAA
B2: CBL peptide 538-553 (E3 ubiquitin-protein ligase CBL), 16-mer library wild type / YES SH3 (YES1 SH3 domain, residues 90-152) (parent complex)
chain 1: TLRDLPPPPPPDRPYS
chain 2: not shown

Variants of: B1
Assay: proteomic peptide phage display deep mutational scan (ProP-PD DMS): M13 P8 16-mer library selected against immobilised GST-tagged bait for four days (rounds), NGS of the eluted pools per day and pseudo-replica; bait immobilised on MaxiSorp plates (10 µg), library pre-cleared on GST, 2 h binding at 4 °C, five washes; one round per day, days 1-4; value from days 2 and 3

Variant	screen value
chain 1 LMSKLSVNAPVFYPSG [chain 1 E11V]	0.00325 average fractional NGS count over selection days 2 and 3 (reads of this peptide / all reads for the bait, averaged over …
chain 1 LMSKLSVNAPPFYPSG [chain 1 E11P]	0.000423 average fractional NGS count over selection days 2 and 3 (reads of this peptide / all reads for the bait, averaged over …
chain 1 LMSKLSVNAPDFYPSG [chain 1 E11D]	0.000612 average fractional NGS count over selection days 2 and 3 (reads of this peptide / all reads for the bait, averaged over …
chain 1 LMSKLSVNAPAFYPSG [chain 1 E11A]	0.00172 average fractional NGS count over selection days 2 and 3 (reads of this peptide / all reads for the bait, averaged over …
chain 1 LMSKLSVNAPSFYPSG [chain 1 E11S]	0.00171 average fractional NGS count over selection days 2 and 3 (reads of this peptide / all reads for the bait, averaged over …
chain 1 LMSKLSVNAPTFYPSG [chain 1 E11T]	0.000925 average fractional NGS count over selection days 2 and 3 (reads of this peptide / all reads for the bait, averaged over …
chain 1 LMSKLSVNAPIFYPSG [chain 1 E11I]	0.000759 average fractional NGS count over selection days 2 and 3 (reads of this peptide / all reads for the bait, averaged over …
chain 1 LMSKLSVMAPEFYPSG [chain 1 N8M]	0.000551 average fractional NGS count over selection days 2 and 3 (reads of this peptide / all reads for the bait, averaged over …
chain 1 LMSKLSVTAPEFYPSG [chain 1 N8T]	0.00351 average fractional NGS count over selection days 2 and 3 (reads of this peptide / all reads for the bait, averaged over …
chain 1 LMSKLSVLAPEFYPSG [chain 1 N8L]	0.00116 average fractional NGS count over selection days 2 and 3 (reads of this peptide / all reads for the bait, averaged over …
chain 1 LMSKLSVYAPEFYPSG [chain 1 N8Y]	0.000292 average fractional NGS count over selection days 2 and 3 (reads of this peptide / all reads for the bait, averaged over …
chain 1 LMSKLSVEAPEFYPSG [chain 1 N8E]	0.000334 average fractional NGS count over selection days 2 and 3 (reads of this peptide / all reads for the bait, averaged over …
chain 1 LMSKLSVAAPEFYPSG [chain 1 N8A]	0.000206 average fractional NGS count over selection days 2 and 3 (reads of this peptide / all reads for the bait, averaged over …
chain 1 LMSKMSVNAPEFYPSG [chain 1 L5M]	0.0192 average fractional NGS count over selection days 2 and 3 (reads of this peptide / all reads for the bait, averaged over …
chain 1 LMSKWSVNAPEFYPSG [chain 1 L5W]	0.000754 average fractional NGS count over selection days 2 and 3 (reads of this peptide / all reads for the bait, averaged over …

Variants of: B2
Assay: as above

Variant	screen value
chain 1 D4V	0.00269 average fractional NGS count over selection days 2 and 3 (reads of this peptide / all reads for the bait, averaged over …
chain 1 D4N	0.00132 average fractional NGS count over selection days 2 and 3 (reads of this peptide / all reads for the bait, averaged over …
chain 1 D4L	0.000198 average fractional NGS count over selection days 2 and 3 (reads of this peptide / all reads for the bait, averaged over …
chain 1 Y15A	0.00482 average fractional NGS count over selection days 2 and 3 (reads of this peptide / all reads for the bait, averaged over …
chain 1 Y15K	0.000227 average fractional NGS count over selection days 2 and 3 (reads of this peptide / all reads for the bait, averaged over …
chain 1 Y15E	9.17e-05 average fractional NGS count over selection days 2 and 3 (reads of this peptide / all reads for the bait, averaged over …
chain 1 Y15G	0.000388 average fractional NGS count over selection days 2 and 3 (reads of this peptide / all reads for the bait, averaged over …
chain 1 Y15H	0.0004 average fractional NGS count over selection days 2 and 3 (reads of this peptide / all reads for the bait, averaged over …
chain 1 Y15S	0.000415 average fractional NGS count over selection days 2 and 3 (reads of this peptide / all reads for the bait, averaged over …
chain 1 L2G	0.000674 average fractional NGS count over selection days 2 and 3 (reads of this peptide / all reads for the bait, averaged over …
chain 1 L2K	0.0014 average fractional NGS count over selection days 2 and 3 (reads of this peptide / all reads for the bait, averaged over …
chain 1 L2Q	0.00095 average fractional NGS count over selection days 2 and 3 (reads of this peptide / all reads for the bait, averaged over …
chain 1 L2Y	0.00467 average fractional NGS count over selection days 2 and 3 (reads of this peptide / all reads for the bait, averaged over …
chain 1 S16W	0.00897 average fractional NGS count over selection days 2 and 3 (reads of this peptide / all reads for the bait, averaged over …
chain 1 S16T	0.000743 average fractional NGS count over selection days 2 and 3 (reads of this peptide / all reads for the bait, averaged over …
chain 1 S16G	0.000561 average fractional NGS count over selection days 2 and 3 (reads of this peptide / all reads for the bait, averaged over …
chain 1 S16E	0.000858 average fractional NGS count over selection days 2 and 3 (reads of this peptide / all reads for the bait, averaged over …
chain 1 S16F	0.00399 average fractional NGS count over selection days 2 and 3 (reads of this peptide / all reads for the bait, averaged over …
chain 1 S16R	0.000301 average fractional NGS count over selection days 2 and 3 (reads of this peptide / all reads for the bait, averaged over …
chain 1 S16V	0.00134 average fractional NGS count over selection days 2 and 3 (reads of this peptide / all reads for the bait, averaged over …
chain 1 R3H	0.000385 average fractional NGS count over selection days 2 and 3 (reads of this peptide / all reads for the bait, averaged over …
chain 1 R3E	0.000121 average fractional NGS count over selection days 2 and 3 (reads of this peptide / all reads for the bait, averaged over …
chain 1 R3Y	0.000386 average fractional NGS count over selection days 2 and 3 (reads of this peptide / all reads for the bait, averaged over …
chain 1 P6M	0.000156 average fractional NGS count over selection days 2 and 3 (reads of this peptide / all reads for the bait, averaged over …

Variant	screen value
chain 1 P9T	0.000558 average fractional NGS count over selection days 2 and 3 (reads of this peptide / all reads for the bait, averaged over …
chain 1 P7Q	0.000151 average fractional NGS count over selection days 2 and 3 (reads of this peptide / all reads for the bait, averaged over …
chain 1 P7Y	0.000234 average fractional NGS count over selection days 2 and 3 (reads of this peptide / all reads for the bait, averaged over …
chain 1 P7E	0.00022 average fractional NGS count over selection days 2 and 3 (reads of this peptide / all reads for the bait, averaged over …
chain 1 P7S	0.00158 average fractional NGS count over selection days 2 and 3 (reads of this peptide / all reads for the bait, averaged over …
chain 1 P7F	0.000149 average fractional NGS count over selection days 2 and 3 (reads of this peptide / all reads for the bait, averaged over …
chain 1 P10V	0.00306 average fractional NGS count over selection days 2 and 3 (reads of this peptide / all reads for the bait, averaged over …
chain 1 P10T	0.00196 average fractional NGS count over selection days 2 and 3 (reads of this peptide / all reads for the bait, averaged over …
chain 1 D12N	0.000102 average fractional NGS count over selection days 2 and 3 (reads of this peptide / all reads for the bait, averaged over …
chain 1 D12Y	0.00156 average fractional NGS count over selection days 2 and 3 (reads of this peptide / all reads for the bait, averaged over …
chain 1 D12I	0.00442 average fractional NGS count over selection days 2 and 3 (reads of this peptide / all reads for the bait, averaged over …
chain 1 D12S	0.000329 average fractional NGS count over selection days 2 and 3 (reads of this peptide / all reads for the bait, averaged over …
chain 1 P14Y	0.00118 average fractional NGS count over selection days 2 and 3 (reads of this peptide / all reads for the bait, averaged over …
chain 1 P14M	0.00532 average fractional NGS count over selection days 2 and 3 (reads of this peptide / all reads for the bait, averaged over …
chain 1 P14T	0.0012 average fractional NGS count over selection days 2 and 3 (reads of this peptide / all reads for the bait, averaged over …
chain 1 L5Q	0.000137 average fractional NGS count over selection days 2 and 3 (reads of this peptide / all reads for the bait, averaged over …
chain 1 P8L	0.000561 average fractional NGS count over selection days 2 and 3 (reads of this peptide / all reads for the bait, averaged over …
chain 1 P8A	9.08e-05 average fractional NGS count over selection days 2 and 3 (reads of this peptide / all reads for the bait, averaged over …
chain 1 R13N	0.000641 average fractional NGS count over selection days 2 and 3 (reads of this peptide / all reads for the bait, averaged over …
chain 1 R13M	0.000309 average fractional NGS count over selection days 2 and 3 (reads of this peptide / all reads for the bait, averaged over …
chain 1 R13Y	0.000779 average fractional NGS count over selection days 2 and 3 (reads of this peptide / all reads for the bait, averaged over …
chain 1 R13Q	0.000164 average fractional NGS count over selection days 2 and 3 (reads of this peptide / all reads for the bait, averaged over …
chain 1 R13L	0.00161 average fractional NGS count over selection days 2 and 3 (reads of this peptide / all reads for the bait, averaged over …
